Results from patent US20050089523A1.

Tests used:
[1] = biological target: anti-VCAM-1•tTF coaguligand (anti-VCAM-1 antibody MK2.7 covalently linked through SMPT to truncated tissue factor, one antibody to one tTF, Mr 180,000) (human) (UniProt P13726); test: 125I-labeled 10H10 bound to anti-VCAM-1•tTF-treated, IL-1alpha-activated bEnd.3 cells, at saturation
[2] = biological target: murine vascular endothelial adhesion molecule-1 (VCAM-1) (murine) (UniProt P29533); test: cell-based or functional assay
Chain of UniProt P29533 (P29533 25-739): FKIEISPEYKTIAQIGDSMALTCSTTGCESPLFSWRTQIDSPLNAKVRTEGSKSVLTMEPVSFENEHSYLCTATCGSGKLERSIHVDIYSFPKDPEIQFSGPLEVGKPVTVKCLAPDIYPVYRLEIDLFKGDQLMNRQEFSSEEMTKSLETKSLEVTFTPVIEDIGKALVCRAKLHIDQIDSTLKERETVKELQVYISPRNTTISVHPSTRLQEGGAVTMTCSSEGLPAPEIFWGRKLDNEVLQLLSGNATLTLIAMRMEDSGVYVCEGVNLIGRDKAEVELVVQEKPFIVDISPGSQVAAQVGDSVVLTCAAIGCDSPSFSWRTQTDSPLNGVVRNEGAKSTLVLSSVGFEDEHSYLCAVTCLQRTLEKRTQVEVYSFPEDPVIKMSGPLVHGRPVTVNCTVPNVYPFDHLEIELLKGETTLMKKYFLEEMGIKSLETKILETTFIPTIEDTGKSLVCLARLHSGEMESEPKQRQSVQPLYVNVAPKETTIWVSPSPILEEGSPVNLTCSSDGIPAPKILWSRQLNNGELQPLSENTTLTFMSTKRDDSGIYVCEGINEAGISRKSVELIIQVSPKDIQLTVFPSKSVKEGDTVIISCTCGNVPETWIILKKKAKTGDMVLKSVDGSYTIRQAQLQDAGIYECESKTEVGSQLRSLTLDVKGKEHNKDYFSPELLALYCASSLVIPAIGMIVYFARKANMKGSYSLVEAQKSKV

[3] = biological target: murine vascular endothelial adhesion molecule-1 (VCAM-1) (murine) (UniProt P29533); test: bEnd.3 cells treated with coaguligand, detected with 125I-labeled 10H10; attributed to constitutive VCAM-1 expression

Substance: 10H10, mouse monoclonal antibody against human tissue factor
- amount of anti-TF antibody bound at saturation [1]: 8.7 fmol
- molecules of anti-TF antibody bound per cell (molecules per cell) [1]: 540000

Substance: anti-VCAM-1•tTF coaguligand (anti-VCAM-1 antibody MK2.7 covalently linked through SMPT to truncated tissue factor, one antibody to one tTF, Mr 180,000) (from UniProt P13726 33-251)
- Generation of Factor Xa by anti-VCAM-1•tTF bound to intact, IL-1α-stimulated bEnd.3 cells (ng per 10^4 cells per 60 min.) [2]: 3.17
- Generation of Factor Xa by anti-VCAM-1•tTF bound to intact, unstimulated (control) bEnd.3 cells (ng per 10^4 cells per 60 min.) [2]: 1.64
- Generation of Factor Xa by anti-VCAM-1•tTF bound to saponin-permeabilized, IL-1α-stimulated bEnd.3 cells (ng per 10^4 cells per 60 min.) [2]: 98.8
- Generation of Factor Xa by anti-VCAM-1•tTF bound to saponin-permeabilized, unstimulated (control) bEnd.3 cells (ng per 10^4 cells per 60 min.) [2]: 49.2
- binding to unstimulated cells relative to activated cells [3]: 0.5
